Consider 65 molecules from patent US20070020327A1.

One may read the IC50 as the point on the concentration scale where inhibition reaches its midpoint.

The target of the first assay is HLA-A*0201 (human). Nature of the assay: competition with 125I-labelled standard peptide 941.01 for purified HLA, gel filtration. The settings on record: remark: other sources report otherwise; scale: ratio.
Regarding VTEFMLCAGL (modifications not checked) [… (Kallikrein, position 192, 10 amino acids)], the binding affinity ratio is 0.0008.
Same read-out and setting: the same measure for WVLTAAHCI (modifications not checked) [… (PSA, position 55, 9 amino acids)]: 0.0008.

The same assay, now with this note: scale: ratio.
Take WIGAAPLIL (modifications not checked) [… (PSA, position 10, 9 amino acids)]: the binding affinity ratio came to 0.0005.
The same measure, in the same setting: to GAAPLILSRI (modifications not checked) [PSA peptide … (position 12)] belongs 0.0005; to GITSWGSEPCA (modifications not checked) [PSA peptide … (position 221)], 0.0001; to GAVEPDRYV (modifications not checked), 0.0001.
The same measure, in the same setting: the same measure for WIKDTIVA (modifications not checked) [WIKDTIVA (PSA, position 248, 8 amino acids)]: 0.0001; for GAAVVHEIV (modifications not checked) [PSM peptide … (position 391)]: 0.0002; for GAVEPDRYVI (modifications not checked): 0.0002.
Same read-out and setting: to VTWIGAAPLI (modifications not checked) [… (PSA, position 8, 10 amino acids)] belongs 0.0019; to VVLRKYADKI (modifications not checked) [… (PSM, position 602, 10 amino acids)], 0.0001; to VVFLTLSV (modifications not checked) [VVFLTLSV (PSA, position 1, 8 amino acids)], 0.0002.
Consider VVFLTLSVT (modifications not checked) [… (PSA, position 1, 9 amino acids)], for which the binding affinity ratio was found to be 0.0008.
Still for that read-out and setting: to FTVQAAAETL (modifications not checked) [PSM peptide … (position 737)] belongs 0.0001.
The same measure, in the same setting: to GIWSKVYDPL (modifications not checked) [PAP peptide … (position 204)] belongs 0.0002; to GIDPQSGAAV (modifications not checked) [PSM peptide … (position 385)], 0.0002; to VTWIGAAPL (modifications not checked) [… (PSA, position 8, 9 amino acids)], 0.011.
The same measure, in the same setting: to WATEDTMTKL (modifications not checked) [… (PAP, position 226, 10 amino acids)] belongs 0.0002.
In the case of WAHCGGVLV (modifications not checked) [… (Kallikrein, position 47, 9 amino acids)], the binding affinity ratio is -0.0001.
On the same count and under the same terms, the same measure for WIGAAPLI (modifications not checked) [WIGAAPLI (PSA, position 10, 8 amino acids)]: 0.0005.
Turning to WAEENSRLL (modifications not checked) [… (PSM, position 434, 9 amino acids)], the binding affinity ratio is 0.0001.

A further assay deals with HLA-A*0201 (human). Nature of the assay: competition with 125I-labelled standard peptide for purified HLA, gel filtration.
Conditions: not given
For the molecule YARTEDFFKL (modifications not checked) [PSM 179 peptide …], the binding affinity ratio (IC50 of the standard peptide / IC50 of the test peptide) turned out to be 0.0002.
In the case of PMFKYHLTVA (modifications not checked) [PSM 568 …], the binding affinity ratio (IC50 of standard peptide / IC50 of test peptide) is 0.0005.
For the molecule PLERFAELV (modifications not checked) [PAP 352 …], the binding affinity ratio (IC50 of standard peptide / IC50 of test peptide) stood at 0.0001.
PLVCNGVLQGI (modifications not checked) [Kallikrein 216 …]: the binding affinity ratio (IC50 of standard peptide / IC50 of test peptide) was found to be 0.002.
The same measure, in the same setting: to PIPVHTVPL (modifications not checked) [PAP 140 …] belongs 0.0002; to PLVCNGVL (modifications not checked) [PSA 212 PLVGNGVL], 0.0001.
On the same count and under the same terms, to PIGYYDAQKL (modifications not checked) [PSM 296 …] belongs 0.0001; to NVIGTLRGAV (modifications not checked) [PSM 357 …], 0.0001.
On the same count and under the same terms, to PLILSRIV (modifications not checked) [PSA 15 PLILSRIV] belongs 0.0001; to PADYFAPGV (modifications not checked) [PSM 231 …], 0.0001.
Regarding PLYDMSLL (modifications not checked) [PSA 95 PLYDMSLL], the binding affinity ratio (IC50 of standard peptide / IC50 of test peptide) worked out at 0.0002.
Turning to PLYHSVYET (modifications not checked) [PSM 550 …], the binding affinity ratio (IC50 of standard peptide / IC50 of test peptide) worked out at 0.0002.
Still for that read-out and setting: the same measure for PLMYSLVHNL (modifications not checked) [PSM 468 …]: 0.0008; for PLVCNGVLQGI (modifications not checked) [PSA 212 …]: 0.002.
On the same count and under the same terms, the same measure for PLVCNGVL (modifications not checked) [Kallikrein 216 PLVGNGVL]: 0.0001; for PAELTDAVKV (modifications not checked) [PSA 125 …]: 0.0002.
Still for that read-out and setting: to PLSEDQLLYL (modifications not checked) [PAP 147 …] belongs 0.0006; to PIDTFPTDPI (modifications not checked) [PAP 49 …], 0.0002.
For the molecule YIRKRYRKFL (modifications not checked) [PAP 84 peptide …], the binding affinity ratio (IC50 of the standard peptide / IC50 of the test peptide) came to 0.0002.

The assay is the same for the next values; noted with them: remark: other sources report otherwise.
With DLMLLRLSEPV (modifications not checked) [peptide 1419.13 (PSA.116.V11 / HuK2.120.V11)], the IC50 came out at 50 nM.

The assay is the same for the next values; noted with them: remark: other sources report otherwise; scale: ratio.
With KVTEFMLCAGL (modifications not checked) [… (Kallikrein, position 191, 11 amino acids)], the binding affinity ratio was found to be 0.001.

The assay is the same for the next values; noted with them: scale: ratio.
With LLEKMGGSA (modifications not checked) [… (PSM, position 305, 9 amino acids)], the binding affinity ratio was 0.0001.
Same read-out and setting: to SVILLGRHSL (modifications not checked) [PSA peptide … (position 67, 10 amino acids)] belongs 0.0001; to LLRLSEPAEL (modifications not checked) [… (PSA, position 119, 10 amino acids)], 0.0001.
On the same count and under the same terms, to SLVHNLTKEL (modifications not checked) [PSM peptide … (position 472, 10 amino acids)] belongs 0.0002.
As for SLLKNRFL (modifications not checked) [PSA peptide SLLKNRFL (position 100, 8 amino acids)], the binding affinity ratio was found to be 0.002.
Same read-out and setting: the same measure for SVELAHYDV (modifications not checked) [PSM peptide … (position 107, 9 amino acids)]: 0.0001; for SVELAHYDVL (modifications not checked) [PSM peptide … (position 107, 10 amino acids)]: 0.0002; for LLRLSEPA (modifications not checked) [LLRLSEPA (PSA, position 119, 8 amino acids)]: 0.0001.
Still for that read-out and setting: the same measure for LAKELKFVTL (modifications not checked) [… (PAP, position 31, 10 amino acids)]: 0.0002; for STQKVKMHI (modifications not checked) [PSM peptide … (position 338, 9 amino acids)]: 0.0001; for KVVHYRKWI (modifications not checked) [… (PSA, position 241, 9 amino acids)]: 0.0001.
On the same count and under the same terms, the same measure for LAGAKGVIL (modifications not checked) [… (PSM, position 219, 9 amino acids)]: 0.0002; for KVVHYRKWI (modifications not checked) [… (Kallikrein, position 245, 9 amino acids)]: 0.0001; for LLRLSEPA (modifications not checked) [LLRLSEPA (Kallikrein, position 123, 8 amino acids)]: 0.0001.
Take SIINEDGNEI (modifications not checked) [PSM peptide … (position 129, 10 amino acids)]: the binding affinity ratio was 0.0001.
The same measure, in the same setting: to LAGTEQNFQL (modifications not checked) [… (PSM, position 83, 10 amino acids)] belongs 0.0001.
SMKHPQEMKT (modifications not checked) [PSM peptide … (position 615, 10 amino acids)]: the binding affinity ratio turned out to be 0.0001.
On to SVTWIGAA (modifications not checked) [PSA peptide SVTWIGAA (position 7, 8 amino acids)], for which the binding affinity ratio was determined as 0.0001.
Still for that read-out and setting: the same measure for SLSLGFLFL (modifications not checked) [PAP peptide … (position 13, 9 amino acids)]: 0.02; for KVTKFMLCA (modifications not checked) [… (PSA, position 187, 9 amino acids)]: 0.002; for LARAASLSL (modifications not checked) [… (PAP, position 8, 9 amino acids)]: 0.0002.
The same measure, in the same setting: the same measure for SLFSAVKNFT (modifications not checked) [PSM peptide … (position 631, 10 amino acids)]: 0.001; for LLHETDSAVA (modifications not checked) [… (PSM, position 4, 10 amino acids)]: 0.0006.
